Data taken from the supplement of paper PMC9170038.

Test system: MS2 coat protein
Experiment: apparent KD of MS2 coat protein; designed switch direction (-1 OFF switch, 1 ON switch): -1; higher = weaker reporter binding
Method in brief: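 Normalised cluster fluorescence was curve-fitted, and each design's median over clusters is its apparent KD. Before this, SNAP-549-labelled MS2 coat protein was titrated from 0.7 or 1.5 nM, doubling to 3 µM, over RNA switches transcribed on Illumina chips by stalled E. coli RNA polymerase. Titrations had no input, 200 uM small-molecule ligand, or an oligonucleotide input, and steps lasted 0.8–1.5 h (lowest) to 10–20 min (highest).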

[1] = input ligand: microRNA oligo, concentration not stated
[2] = Eterna round: R95, input ligand: FMN 200 uM
[3] = Eterna round: R95, input ligand: microRNA oligo, concentration not stated
[4] = Eterna round: R95, input ligand: none

Sequence | apparent KD of MS2 coat protein (input ligand: FMN 200 uM) [nM] | apparent KD of MS2 coat protein (input ligand: none) [nM] | apparent KD of MS2 coat protein [1] [nM] | apparent KD of MS2 coat protein [2] [nM] | apparent KD of MS2 coat protein [3] [nM] | apparent KD of MS2 coat protein [4] [nM]
AGCCUAGCAGGAUAUGCUCGGGAUUACAUGAGGAUCACCCAUGUGACUGAUUGUUGUCUUGCAGAAGGGCUAGGGA [JL-EX5-4.04 ViennaUCT mod] (Eterna round: R97, puzzle: Exclusion 5) | 365 | 49 | – | – | – | –
AGCCUGGGUUCGCCCAGGUACAUGAGGAUCACCCAUGUCAUGGGUACUUGUGUUGGUAGGCAGUGUGCUCGUCUUAU [Cac Sensor turnoff v1 sub10] (Eterna round: R97, puzzle: Sensor, turn-off variant 1) | 719 | 1050 | – | – | – | –
AGCGAAUAGGUAGGAUAUGAGAAUAGAUAGAGCUCAGAAGGACCACAUGAGGAUCACCCAUGUAAAGUCUUGAGGCUGCGUGGU [Prohibition 15 - Jieux - Exclusion NG 1] (Eterna round: R96, puzzle: Exclusion NG 1) | 51 | 17.5 | 14.4 | – | – | –
AGCGAGGUAGGAUAUACAUGAGGAUCACCCAUGUGCUUGCAUGGCGUGGAACGUCGAGGUAGAAGGGCCAUGCC [EX3 #73] (Eterna round: R97, puzzle: Exclusion 3) | 24.5 | 27.8 | – | – | – | –
AGCGUGUGAGGAUAUCGAUAUUGGAAGUCUAGGUCUGAGCGCGAGAAGGCACAUGAGGAUCACCCAUGUAAGGG [Teceor] (Eterna round: R97, puzzle: Exclusion 4) | 516 | 375 | – | – | – | –
AGCUAGAUAGGAUAUGCCCGAGAUAACAUGAGGAUCACCCAUGUGACCGAAUCUAUUCUAGCAGAAGGGUUUAGGA [Mod of ViennaUCT 17 - Jieux - Exclusion 5] (Eterna round: R97, puzzle: Exclusion 5) | 16.5 | 14 | – | – | – | –
AGCUAGAUAGGAUAUGCCCGGGAUAACAUGAGGAUCACCCAUGUGACCGAAUCAAAUCCAGCAGAAGGGUUUGGGA [Mod of ViennaUCT 13 - Jieux - Exclusion 5] (Eterna round: R97, puzzle: Exclusion 5) | 22 | 18.6 | – | – | – | –
AGCUAGAUAGGAUAUGCCCGGGAUAACAUGAGGAUCACCCAUGUGGCCGAAUCAUGUCCAGCAGAAGGGUUUGGGA [Mod of ViennaUCT 10 - Jieux - Exclusion 5] (Eterna round: R97, puzzle: Exclusion 5) | 18.2 | 17 | – | – | – | –
AGCUAGUCAGGAUAUACGAAAAUGUCAGAAGCUGAGAAGGGACAUGAGGAUCACCCAUGUAGAAGGGACUAGCA [Diamond 37] (Eterna round: R96, puzzle: Exclusion 2) | – | – | 48.7 | – | – | –
AGCUAGUCAGGAUAUUCUAAUAAUUACAUGAGGAUCACCCAUGUGAAUGGACAAGGGUGUGAAGAAGGGACUAGCG [Omei Ex5 A9] (Eterna round: R97, puzzle: Exclusion 5) | 429 | 1230 | – | – | – | –
AGCUAGUGCCGAGGAUAUACAUGAGGAUCACCCAUGUAAGCCAGUCGGUUUCUGACUGGCAAGAUGUAGAAGGCGGCGUUGGCA [JL ENG2 1.50] (Eterna round: R96, puzzle: Exclusion NG 2) | 57.1 | 13.5 | 9.57 | – | – | –
AGCUGACAAGGAUAUACAUGAGGAUCACCCAUGUUGGUUCAGCGACGAUAGUCGCAAUGUAGAAGGUGUCAGCU [E3/9-C2] (Eterna round: R97, puzzle: Exclusion 3) | 108 | 282 | – | – | – | –
AGCUGUGAGCGAGGAUAUCUGCUGUUUUCGGUCGGAGAAGGCGCGGACAGAACAUGAGGAUCACCCAUGUGUAUGGGCGGCCUC [Xexeenve] (Eterna round: R96, puzzle: Exclusion NG 1) | 119 | 73.7 | 44.5 | – | – | –
AGCUGUGGCCAAGGAUAUCCAACCUUAAAUACCGACGUAUAGUCGGACAUGAGGAUCACCCAUGUGGAGAAGGUGGUCUCAGCA [Eli eng2 - 042] (Eterna round: R96, puzzle: Exclusion NG 2) | 52.2 | 30.1 | 33.7 | – | – | –
AGCUGUGGCCGAGGAUAUACAUGAGGAUCACCCAUGUUACAUAAUUAAGCCGGAGAACCGGCUCCGUAGAAGGCGGUCUCAGCA [Eli eng2 - 003] (Eterna round: R96, puzzle: Exclusion NG 2) | 12.6 | 13.7 | 9.39 | – | – | –
AGCUGUGGCCGAGGAUAUCAAGACCGAUGGAAAACCAUCGGAACUCAACAUGAGGAUCACCCAUGUGAGAAGGCGGUCUCAGCA [Eli eng2 - 027] (Eterna round: R96, puzzle: Exclusion NG 2) | 10.9 | 10.9 | 7.82 | – | – | –
AGCUGUGGCCGAGGAUAUCACUACCGAUGGAAAACCAUCGGAACUCCACAUGAGGAUCACCCAUGUGAGAAGGCGGUCUCAGCA [Eli eng2 - 029] (Eterna round: R96, puzzle: Exclusion NG 2) | 24 | 15.7 | 11.2 | – | – | –

Sequence | apparent KD of MS2 coat protein (input ligand: FMN 200 uM) [nM] | apparent KD of MS2 coat protein (input ligand: none) [nM] | apparent KD of MS2 coat protein [1] [nM] | apparent KD of MS2 coat protein [2] [nM] | apparent KD of MS2 coat protein [3] [nM] | apparent KD of MS2 coat protein [4] [nM]
AGCUGUGGCCGAGGAUAUCUAAACCUCGAAAACGAAAUAUAAUCGAACAUGAGGAUCACCCAUGUAGAGAAGGCGGUCUCAGCA [Eli eng2 - 033] (Eterna round: R96, puzzle: Exclusion NG 2) | – | – | 51 | – | – | –
AGCUGUGGCCGAGGAUAUCUAUCCAAUAAAACCGAAAUAUAAUCGGACAUGAGGAUCACCCAUGUAGAGAAGGCGGUCUCAGCA [Eli eng2 - 094] (Eterna round: R96, puzzle: Exclusion NG 2) | – | – | 16.4 | – | – | –
AGCUGUGGCCGAGGAUAUCUGUUCCAUAUAACCGACGUAUAGUCGGACAUGAGGAUCACCCAUGUAGAGAAGGCGGUCUCAGCA [Eli eng2 - 000] (Eterna round: R96, puzzle: Exclusion NG 2) | 39.2 | 25.4 | 23.3 | – | – | –
AGCUGUGGCCGAGGAUAUGACAUGAGGAUCACCCAUGUACAAGAUUAGGCCUGGUAACAGGCUCAUCAGAAGGCGGUCUCAGCA [Eli eng2 - 015] (Eterna round: R96, puzzle: Exclusion NG 2) | 10 | 13.9 | 9.52 | – | – | –
AGCUGUGGCCGAGGAUAUGCUACUUCAAUAACCGAAAUAUAAUCGGACAUGAGGAUCACCCAUGUAGAGAAGGCGGUCUCAGCA [Eli eng2 - 085] (Eterna round: R96, puzzle: Exclusion NG 2) | – | – | 10.3 | – | – | –
AGGAAGCAAGGAUAUACGAGGAGAAGGUGUAGAUUUAAAGGACAUGAGGAUCACCCAUGUAGAAGGUGCGAGAA [JR_Exclu2_Sub047] (puzzle: Exclusion 2) | – | – | – | 62.7 | 31.8 | 41.4
AGGAAGCAAGGAUAUACGAGGAGAAGGUGUCGAUUUAAAGGACAUGAGGAUCACCCAUGUAGAAGGUGCGAGAA [JR_Exclu2_Sub048] (puzzle: Exclusion 2) | – | – | – | 110 | 83.6 | 95.8
AGGACAUCAGGCGGCAUGUACAUGAGGAUCACCCAUGUCCUAGAAAGCUGUAUGCUCGUCUUAGGCCCAACCUCGCU [Eternabot (Original) Solution 13] (Eterna round: R97, puzzle: Sensor, turn-off variant 1) | 65.1 | 61 | – | – | – | –
AGGAUGUGAGGAUAUCCAUCCCGCGAAUACGGGUAAUAAAUGGAGAAGGCACAUGAGGAUCACCCAUGUGAUGA [Ceersois] (Eterna round: R97, puzzle: Exclusion 4) | 262 | 54.1 | – | – | – | –
AGGAUGUUAGGAUAUCGGAGAUGCGGGAGGAGGUGGAGGUACGAGAAGGAACAUGAGGAUCACCCAUGUGGAAG [JR_Exclu4_Sub045] (puzzle: Exclusion 4) | – | – | – | – | 18.4 | –
AGGAUGUUAGGAUAUCGGAGAUGCUGGAGGAGGUGGAUUUACGAGAAGGAACAUGAGGAUCACCCAUGUGGAAG [JR_Exclu4_Sub046] (puzzle: Exclusion 4) | – | – | – | 35.1 | 25.8 | 27.2
AGGCGGAAAGUAAGGAUAUCUUGACCAAAGGGUUGAGAGAAGGUACAUGAGGAUCACCCAUGUGGUGACCGCCA [Morphing Claw (Vienna)] (Eterna round: R97, puzzle: Brourd's mod of Exclusion 4) | 228 | 685 | – | – | – | –
AGGCGGACAUCUAAUACUCACAUGAGGAUCACCCAUGUUUGACCAAAUAUACAGGCCGGUUUGCUUAGUCUUACUUG [Eternabot (L2) Solution 43] (Eterna round: R97, puzzle: Sensor, turn-off variant 1) | 40.8 | 49.2 | – | – | – | –
AGGGACGUAGGAUAUACCGUGUAGUACAUGAGGAUCACCCAUGUUUGCCUCAUAGUCCACGUAGAAGGAUGUGACA [Eternabot (L2) Solution 37] (Eterna round: R97, puzzle: Exclusion 5) | 70.9 | 64.1 | – | – | – | –
AGGGAUAAAGGAUAUACAUGAGGAUCACCCAUGUUGAGGAAGGUUAGAGGUGGCGAUAGUAGAAGGUUAGGUAG [JR_Exclu3_Sub081] (puzzle: Exclusion 3) | – | – | – | – | 77 | –
AGGGCGGGAGGAUAUCCAAUAUAUGACAUGAGGAUCACCCAUGUUUCCACUCGUACCUCCGGAGAAGGCCCGCCGA [Ex5 #25] (Eterna round: R97, puzzle: Exclusion 5) | 21.2 | 21.5 | – | – | – | –
AGGGCUGCUCAGGAUAUCCGUAAAAGCCGAGAAGGAGAAGGGAGCACAUGAGGAUCACCCAUGUGAUCCGAAAA [Verila] (puzzle: Exclusion 6) | – | – | – | – | 19.7 | –
